The experiment has as its target His标签蛋白. Description: ELISA titre of mouse ascites. In general terms: An ELISA detects its analyte on a solid surface through an enzyme-linked reagent.

B1: 杂交瘤细胞株4C9(CCTCC NO. C2015198)分泌的抗His标签蛋白单克隆抗体 (antibody, V domains shown)
VH: EVQLQESGAELMKPGASVKLSCKATGYTFTGYWIEWVKQRPGHGLEWIGEILPGSGSINHNENFKDKATFTADTSSNTAYMQLNSLTTEDSAVYFCAGGGGYWGQGTTLTVSS
VL: EIVITQTPLSLPVSLGDQASISCRSSRSIVHSNGNTYLEWYLQKPGQSPKLLIYKVSNRVSGVPDRFSGSGSGTDFTLKISRVEAEDLGVYYCFQGSHVPLTFGAGTKLELKR
The molecule B1 came in with an ELISA效价 of 1.28e+06.

The values above are taken from patent publication CN105695419A.
